Source: patent publication US20200370136

Legend:
[1] = test system: T7 RNA polymerase, SNAPf fusion (T7 RNAP-SNAPf), freely diffusing (bacteriophage T7?); details: Michaelis Km of transcription; 10 mM MgCl2, 37 C; Vmax 62 nM/s
[2] = test system: T7 RNA polymerase, SNAPf fusion, anchored on DNA origami tile (T7-chip) (bacteriophage T7?); details: apparent Michaelis Km of transcription for externally diffusing gene; 10 mM MgCl2, 37 C; Vmax 34 nM/s

sfGFP gene with T7 promoter (942 nt transcript)
K half [1]: 5.6 nM
K half [2]: 1010 nM
